Results as given in patent publication US20110263454A1, “Methods of Identifying Functional Characteristics of Promoters, Transcription Modifying Proteins and Transcription Modulating Agents” (Salk Institute for Biological Studies, priority 2008, published 2011).

B1: SHP: Small Heterodimer Partner (NR0B2), cDNA driver (protein, UniProt Q15466 1-257, looked up)
Nuclear receptor subfamily 0 …: MSTSQPGACPCQGAASRPAILYALLSSSLKAVPRPRSRCLCRQHRPVQLCAPHRTCREALDVLAKTVAFLRNLPSFWQLPPQDQRRLLQGCWGPLFLLGLAQDAVTFEVAEAPVPSILKKILLEEPSSSGGSGQLPDRPQPSLAAVQWLQCCLESFWSLELSPKEYACLKGTILFNPDVPGLQAASHIGHLQQEAHWVLCEVLEPWCPAAQGRLTRVLLTASTLKSIPTSLLGDLFFRPIIGDVDIAGLLGDMLLLR
B2: DAX-1: DAX1 (NR0B1), cDNA driver (protein, UniProt P51843 1-470, looked up)
Nuclear receptor subfamily 0 …: MAGENHQWQGSILYNMLMSAKQTRAAPEAPETRLVDQCWGCSCGDEPGVGREGLLGGRNVALLYRCCFCGKDHPRQGSILYSMLTSAKQTYAAPKAPEATLGPCWGCSCGSDPGVGRAGLPGGRPVALLYRCCFCGEDHPRQGSILYSLLTSSKQTHVAPAAPEARPGGAWWDRSYFAQRPGGKEALPGGRATALLYRCCFCGEDHPQQGSTLYCVPTSTNQAQAAPEERPRAPWWDTSSGALRPVALKSPQVVCEAASAGLLKTLRFVKYLPCFQVLPLDQQLVLVRNCWASLLMLELAQDRLQFETVEVSEPSMLQKILTTRRRETGGNEPLPVPTLQHHLAPPAEARKVPSASQVQAIKCFLSKCWSLNISTKEYAYLKGTVLFNPDVPGLQCVKYIQGLQWGTQQILSEHTRMTHQGPHDRFIELNSTLFLLRFINANVIAELFFRPIIGTVSMDDMMLEMLCTKI

What was measured:
mAgrp promoter = assay: NHR-promoter luciferase screen, mAgrp promoter; assay type: cell-based, mouse; conditions: for Results of assays of transcription factor (+/- ligand) with mAgrp: Table 6d, luciferase activity relative to control (control = 1.00); for Luc. act., normalized to lacZ / Normalized Luc. act., normalized to control: mAgrp promoter, HR component with or without ligand; for Normalized Luc. act., normalized to control: relative to control
In short: (§1)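 CV-1 cells were co-transfected with 50 ng NHR (homodimer or NHR/RXR heterodimer), 100 ng promoter-luciferase construct and 50 ng LacZ. Luciferase was normalized to LacZ and to a no-NHR/no-ligand control.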

mPOMC promoter = assay: NHR-promoter luciferase screen, mPOMC promoter; assay type: cell-based, mouse; conditions: for Results of assays of transcription factor (+/- ligand) with mPOMC: Table 6d, luciferase activity relative to control (control = 1.00); for Luc. act., normalized to lacZ / Normalized Luc. act., normalized to control: mPOMC promoter, HR component with or without ligand; for Normalized Luc. act., normalized to control: relative to control
In short: as §1

mADRP promoter = assay: NHR-promoter luciferase screen, mADRP promoter; assay type: cell-based, mouse; conditions: for Luc. act., normalized to lacZ / Normalized Luc. act., normalized to control: ADRP promoter, HR/ligand component; for mADRP promoter reporter activity: transcription factor +/- ligand, control = 1.00
In short: as §1

mAdiponectin promoter = assay: NHR-promoter luciferase screen, mAdiponectin promoter; assay type: cell-based, mouse; conditions: for Luc. act., normalized to lacZ / Normalized Luc. act., normalized to control: Adiponectin, HR component without or with its ligand; for mAdiponectin promoter reporter activity: transcription factor +/- ligand, control = 1.00
In short: as §1

RevErba promoter = assay: NHR-promoter luciferase screen, RevErba (RVRa) promoter; assay type: cell-based; design: key to mRevErba promoter reporter activity / Normalized Luc. act., normalized to control: luciferase activity normalized to lacZ and to control (no NHR/ligand); conditions: for Luc. act., normalized to lacZ / Normalized Luc. act., normalized to control: HR component without or with ligand; for normalized Luc. act. on a logarithmic scale (column without head, Table 33): log10 of activity normalized to control; for mRevErba promoter reporter activity: transcription factor +/- ligand, control = 1.00
In short: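 Reporter readout: RevErbα promoter-driven luciferase, corrected for LacZ transfection efficiency and expressed relative to a no-receptor or no-ligand control. Receptors (V5H6-tagged, pcDNA3.1), alone or with RXR, plus any ligand, were expressed in CV-1 cells.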

Molecule	Results of assays of transcription factor (+/- ligand) with mAgrp (mAgrp promoter)	Luc. act., normalized to lacZ (mAgrp promoter)	Normalized Luc. act., normalized to control (mAgrp promoter)	Results of assays of transcription factor (+/- ligand) with mPOMC (mPOMC promoter)	Luc. act., normalized to lacZ (mPOMC promoter)	Normalized Luc. act., normalized to control (mPOMC promoter)	Luc. act., normalized to lacZ (mADRP promoter)	Normalized Luc. act., normalized to control (mADRP promoter)	mADRP promoter reporter activity (mADRP promoter)	Luc. act., normalized to lacZ (mAdiponectin promoter)	Normalized Luc. act., normalized to control (mAdiponectin promoter)	mAdiponectin promoter reporter activity (mAdiponectin promoter)	Luc. act., normalized to lacZ (RevErba promoter; RVRa promoter)	Normalized Luc. act., normalized to control (RevErba promoter; RVRa promoter)	negative reciprocal of normalized Luc. act. (fold repression; Table 33) (RevErba promoter; RVRa promoter, given only where activity is below control)	normalized Luc. act. on a logarithmic scale (column without head, Table 33) (RevErba promoter; RVRa promoter)	mRevErba promoter reporter activity (RevErba promoter)
B1	1.12	44.6	1.1	0.95	65.6	1.0	421.4	0.8	0.85	46.1	0.7	0.73	22.7	0.8	−1.229	−0.09	0.81
B2	1.07	42.3	1.1	0.92	63.4	0.9	419.9	0.8	0.84	45.6	0.7	0.73	29.4	1.1	–	0.02	1.05
